Experimental data from patent US12698507B2, “Methods and compositions for conferring and/or enhancing herbicide tolerance using protoporphyrinogen IX oxidase of various cyanobacteria or variant thereof” (FarmHannong Co., Ltd., priority 2019, dated 2026).

B1: CyPPO19 V305M + F360M: variant of CyPPO19 PPO protein (SEQ ID NO: 1) (protein)
chain: MSEVDVAIVGGGLSGLSLAWRLQQSAPQYSVVLLEASDRLGGNITTQTAEGFVWELGPNSFAPTPALLQLIAEVGLQSELIRGDRHLPRYIYWRGQLYPLQPTRPLALATSNLLSPWGKVRAALGALGFVPPYLGSGDESVNSFFRRHLGQEVAERLVAPFVSGVYAGDPQQLSAAAAFRRIAQLEKLGGGLIAGALHLRRQQAPKPKPPTSVQMRPGELGSFKEGLAALPRAIAQQLKAPIHLQTPVQEITPDPKGGYLLRSGEQTWRARSVVLATPAYQTAELVAPFQPAIARVLATIPYPTMACVVLAYPAGLGRSVRPGFGVLIPRSQGIRTLGTIWSSCLFPQRTPAGWQVFTSMIGGATDPDLASLSEEAIVQQVQQDLNRLLDLPAAKARLLGMKVWRRAIPQYMVGYPEQWQQVTHALSQTPGLFLCSNYAEGVALGDRVEHGNRTAAAVAAYLSGGQP
modifications: Synthetic_PPO of Thermosynechococcus elongatus PKUAC-SCTE542 (comprising GenBank No. CP032152.1)
B2: CyPPO19 V305L + F360L: variant of CyPPO19 PPO protein (SEQ ID NO: 1) (protein)
chain: MSEVDVAIVGGGLSGLSLAWRLQQSAPQYSVVLLEASDRLGGNITTQTAEGFVWELGPNSFAPTPALLQLIAEVGLQSELIRGDRHLPRYIYWRGQLYPLQPTRPLALATSNLLSPWGKVRAALGALGFVPPYLGSGDESVNSFFRRHLGQEVAERLVAPFVSGVYAGDPQQLSAAAAFRRIAQLEKLGGGLIAGALHLRRQQAPKPKPPTSVQMRPGELGSFKEGLAALPRAIAQQLKAPIHLQTPVQEITPDPKGGYLLRSGEQTWRARSVVLATPAYQTAELVAPFQPAIARVLATIPYPTLACVVLAYPAGLGRSVRPGFGVLIPRSQGIRTLGTIWSSCLFPQRTPAGWQVFTSLIGGATDPDLASLSEEAIVQQVQQDLNRLLDLPAAKARLLGMKVWRRAIPQYMVGYPEQWQQVTHALSQTPGLFLCSNYAEGVALGDRVEHGNRTAAAVAAYLSGGQP
modifications: Synthetic_PPO of Thermosynechococcus elongatus PKUAC-SCTE542 (comprising GenBank No. CP032152.1)
B3: CyPPO19 V305M + F360V: variant of CyPPO19 PPO protein (SEQ ID NO: 1) (protein)
chain: MSEVDVAIVGGGLSGLSLAWRLQQSAPQYSVVLLEASDRLGGNITTQTAEGFVWELGPNSFAPTPALLQLIAEVGLQSELIRGDRHLPRYIYWRGQLYPLQPTRPLALATSNLLSPWGKVRAALGALGFVPPYLGSGDESVNSFFRRHLGQEVAERLVAPFVSGVYAGDPQQLSAAAAFRRIAQLEKLGGGLIAGALHLRRQQAPKPKPPTSVQMRPGELGSFKEGLAALPRAIAQQLKAPIHLQTPVQEITPDPKGGYLLRSGEQTWRARSVVLATPAYQTAELVAPFQPAIARVLATIPYPTMACVVLAYPAGLGRSVRPGFGVLIPRSQGIRTLGTIWSSCLFPQRTPAGWQVFTSVIGGATDPDLASLSEEAIVQQVQQDLNRLLDLPAAKARLLGMKVWRRAIPQYMVGYPEQWQQVTHALSQTPGLFLCSNYAEGVALGDRVEHGNRTAAAVAAYLSGGQP
modifications: Synthetic_PPO of Thermosynechococcus elongatus PKUAC-SCTE542 (comprising GenBank No. CP032152.1)
B4: CyPPO19 V305M + F360L: variant of CyPPO19 PPO protein (SEQ ID NO: 1) (protein)
chain: MSEVDVAIVGGGLSGLSLAWRLQQSAPQYSVVLLEASDRLGGNITTQTAEGFVWELGPNSFAPTPALLQLIAEVGLQSELIRGDRHLPRYIYWRGQLYPLQPTRPLALATSNLLSPWGKVRAALGALGFVPPYLGSGDESVNSFFRRHLGQEVAERLVAPFVSGVYAGDPQQLSAAAAFRRIAQLEKLGGGLIAGALHLRRQQAPKPKPPTSVQMRPGELGSFKEGLAALPRAIAQQLKAPIHLQTPVQEITPDPKGGYLLRSGEQTWRARSVVLATPAYQTAELVAPFQPAIARVLATIPYPTMACVVLAYPAGLGRSVRPGFGVLIPRSQGIRTLGTIWSSCLFPQRTPAGWQVFTSLIGGATDPDLASLSEEAIVQQVQQDLNRLLDLPAAKARLLGMKVWRRAIPQYMVGYPEQWQQVTHALSQTPGLFLCSNYAEGVALGDRVEHGNRTAAAVAAYLSGGQP
modifications: Synthetic_PPO of Thermosynechococcus elongatus PKUAC-SCTE542 (comprising GenBank No. CP032152.1)

The molecules below were run on PPO-deficient BT3 E. coli (ΔPPO) (assay: PPO-inhibiting herbicide tolerance test of PPO variants in E. coli (growth on herbicide-containing LB agar)). Settings: CyPPO19 variants in BT3 (ΔPPO) E. coli; LB agar with 0 to 2,000 μM herbicide, 37° C., dark, 16-20 hours.
Format: cell-based
How it was run: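 PPO-deficient BT3 E. coli expressing each variant from pET303 were diluted to OD600=0.5, then 10-fold serially, and spotted on LB-ampicillin agar with 0 to 2,000 μM herbicide. After 16-20 h at 37° C. in the dark, growth relative to wild type was scored from '−' (equivalent) to '+' per 10-fold resistance, max '+++++'.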

**Q.** Which “tolerance level relative to wild type, Carfentrazone” value does the source give for B1 here?
**A.** + (‘+’ per each 10-fold resistance)

**Q.** And the “tolerance level relative to wild type, Flumioxazin” value?
**A.** ++++ (‘+’ per each 10-fold resistance)

**Q.** What about the “tolerance level relative to wild type, Fomesafen” value of the same molecule?
**A.** +++ (‘+’ per each 10-fold resistance)

**Q.** What about the “tolerance level relative to wild type, Oxyfluorfen” value of the same molecule?
**A.** ++ (‘+’ per each 10-fold resistance)

**Q.** And the “tolerance level relative to wild type, Saflufenacil” value?
**A.** ++++ (‘+’ per each 10-fold resistance)

**Q.** And the “tolerance level relative to wild type, Sulfentrazone” value?
**A.** ++ (‘+’ per each 10-fold resistance)

**Q.** What about the “tolerance level relative to wild type, Tiafenacil” value of the same molecule?
**A.** ++++ (‘+’ per each 10-fold resistance)

**Q.** Which results are given for B2?
**A.** tolerance level relative to wild type, Carfentrazone: + (‘+’ per each 10-fold resistance); tolerance level relative to wild type, Flumioxazin: ++++ (‘+’ per each 10-fold resistance); tolerance level relative to wild type, Fomesafen: +++ (‘+’ per each 10-fold resistance); tolerance level relative to wild type, Oxyfluorfen: ++ (‘+’ per each 10-fold resistance); tolerance level relative to wild type, Saflufenacil: ++++ (‘+’ per each 10-fold resistance); tolerance level relative to wild type, Sulfentrazone: ++ (‘+’ per each 10-fold resistance); tolerance level relative to wild type, Tiafenacil: ++++ (‘+’ per each 10-fold resistance)

**Q.** For B3, which “tolerance level relative to wild type, Carfentrazone” value is on record?
**A.** + (‘+’ per each 10-fold resistance)

**Q.** What about the “tolerance level relative to wild type, Flumioxazin” value of the same molecule?
**A.** ++++ (‘+’ per each 10-fold resistance)

**Q.** What about the “tolerance level relative to wild type, Fomesafen” value of the same molecule?
**A.** + (‘+’ per each 10-fold resistance)

**Q.** What about the “tolerance level relative to wild type, Oxyfluorfen” value of the same molecule?
**A.** ++ (‘+’ per each 10-fold resistance)

**Q.** What about the “tolerance level relative to wild type, Saflufenacil” value of the same molecule?
**A.** ++++ (‘+’ per each 10-fold resistance)

**Q.** And the “tolerance level relative to wild type, Sulfentrazone” value?
**A.** + (‘+’ per each 10-fold resistance)

**Q.** What about the “tolerance level relative to wild type, Tiafenacil” value of the same molecule?
**A.** ++++ (‘+’ per each 10-fold resistance)

**Q.** How did the “tolerance level relative to wild type, Carfentrazone” value turn out when B4 was run?
**A.** + (‘+’ per each 10-fold resistance)

**Q.** And the “tolerance level relative to wild type, Flumioxazin” value?
**A.** ++++ (‘+’ per each 10-fold resistance)

**Q.** And the “tolerance level relative to wild type, Fomesafen” value?
**A.** ++ (‘+’ per each 10-fold resistance)

**Q.** And the “tolerance level relative to wild type, Oxyfluorfen” value?
**A.** ++ (‘+’ per each 10-fold resistance)

**Q.** And the “tolerance level relative to wild type, Saflufenacil” value?
**A.** ++++ (‘+’ per each 10-fold resistance)

**Q.** What about the “tolerance level relative to wild type, Sulfentrazone” value of the same molecule?
**A.** ++ (‘+’ per each 10-fold resistance)

**Q.** And the “tolerance level relative to wild type, Tiafenacil” value?
**A.** ++++ (‘+’ per each 10-fold resistance)
